B1: TPR t1 (parent)
chain: GACCAAUCUGCCCUCAGAGCUCGAGAACAUCUUCGGAUGCAGAGGAGGCAGGCUUCGGUGGCGCGAUAGCGCCAACGUCCUCAACCUCCAAUGCAUCCCACCACAUGAUGAUGCCUGAAGAGCCUUGGUUUUUUG

The variants in the data set derive from B1. The data set is described as follows: polymerase ribozyme fitness, log enrichment relative to wild type (log ratio); higher = more active; in vitro selection for triplet polymerase activity. The essentials: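 Both subunits of a heterodimeric triplet polymerase ribozyme were given their own mutant library, built by PCR and transcribed. Each library was annealed with a biotinylated primer, the partner subunit and triplets, incubated frozen at −7 °C, and its extended constructs gel-excised, captured on streptavidin beads and amplified by RT-PCR, all in one round done in triplicate. Fitness is the logarithm of genotype enrichment relative to wild-type enrichment, with replicates averaged by inverse-variance weighting. That logarithm is base 2, and Illumina-sequenced genotypes needed ≥10 input reads and ≥1 read per output.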
For the variant GACCAAUCUGCCCUCAGAGCUCGAGAACAUCUUCGGAUGCAGAGCAGGCAGGCUUCGGUGGCGCGAUAGCGCCAACGUCCUCAACCUCCAAUGCAUCCCACCACAUGAUGAUGCCUGGAGUGCCUUGGUUUUUUG, the “polymerase ribozyme fitness (log ratio)” value was -1.69. Turning to GACCAAUCUGCCCUCAGAGCUCGAGAACAUCUUCGGAUGCAGAGCAGGCAGGCUUCGGUGGCGCGAUAGCGCCAACGUCCUCAGCCUCCAAUGCAUCCCACCACAUGAUGAUGCCUGAAGAGCCUUGGUUUUUUG, the “polymerase ribozyme fitness (log ratio)” value is -1.49.

Take GACCAAUCUGCCCUCAGAGCUCGAGAACAUCUUCGGAUGCAGAGCAGGCAGGCUUCGGUGGCGCGAUGGCGCCAACGUCCUCAACCUCCAAUGCAUCCCACCACAUGAUGAAGCCUGUAGAGCCUUGGUUUUUUG: the “polymerase ribozyme fitness (log ratio)” value is -4.16. Turning to GACCAAUCUGCCCUCAGAGCUCGAGAACAUCUUCGGAUGCAGAGCAGGCAGGCUUCGGUGGAGCGAUAGCGCCAACGUCCUCGUCCUCCAAUGCAUCCCACCACAUGAUGAUGCCUGAAGAGCCUUGGUUUUUUG, the “polymerase ribozyme fitness (log ratio)” value is -3.77. For the variant GACCAAUCUGCCCUCAGAGCUCGAGAACAUCUUCGGAUGCAGAGCAGGCCGGCUUCGGUGGCGCGAUAGCGCCAACGUCCUCAACCUCCAAUGCAUCCCACCACAUGAUGAUGCCUGAAGAGCCUUGGUUUUUUG, the “polymerase ribozyme fitness (log ratio)” value was -0.909. The value for GACCAAUCUGCCCUCAGAGCUCGAGAACAUCUUCGGAUGCAGAGCAGGCAGGCUUCGGUGGCGCGAUAGCGCCAAGGUCCUCAACCUCCAAUGCAUCCCACCACAUGAUGAUGCCUGAAGAGCCGUGGUUUUUUG was -1.06; that for GACCAAUCUGCCCUCAGAGCUCGAGAACAUCUUCGGAUGCAGAGCAGGCAGGUUUCGGUGGCCCGAUAGCGCCAACGUCCUCAACCUCCAAUGCAUCCCACCACAUGAUGAUGCCGGAAGAGCCUUGGUUUUUUG was -3.05; that for GACCAAUCUGCCCUCAGAGCUCGAGAACAUCUUCGGAUGCAGAGCAGGCAGGCUUCGGUGGCGCGAUAGCGCCAGCGUCCUCAACCUCCAAUGCAACCCACCACAUGAUGAUCCCUGAAGAGCCUUGGUUUUUUG was -2.91. Under GACCAAUCUGCCCUCAGAGCUCGAGAACAUCUUCGGAUGCAGAGCAGGCAGGCUUCGGUGGCGCGAUAGCGACAACGUCCUCAACCUCCAAUGCAUCCCACCACAUGAUGAUGCCUGAAGAGCCUUGGUUUUUUC stands -0.387; under GACCAAUCUGCCCUCAGAGCUCGAGAACAUCUUCGGAUGCAGAGCAGGCAGGCUUUGGUGGCGCGAUAGCGCCAACGUCCGCAACCUCCAAUGCAUCCCACCACAUGAUGAUCCCUGAAGAGCCUUGGUUUUUUG, -4.36; under GACCAAUCUGCCCUCAGAGCUCGAGAACAUCUUCGGAUGCAGAGCAGGCCGGCUUCGGUGGCGCGAUAGCGCCAACGUCCUCAACCUCCAAUGCAUCCCACCACAUGAUGAUGCCUGAAGCGCCUUGGUUUUUUG, 0.0664. The value for GACCAAUCUGCCCUCAGAGCUCGAGAACAUCUUCGGAUGCAGAGCAGGCAGGCUUCGGUGGCGCGAUAGCGCCGUCCUCCUCAACCUUCAAUGCAUCCCACCACAUGAUGAUGCCUGAAGAGCCUUGGUUUUUUC was -1.28.

For the variant GACCAAUCUGCCCUCAGAGCUCGAGAACAUCUUCGGAUGCAGAGCAGGCAGGCUUUGGUGGCGCGAUAGCGCCAACGUCCUCAACCUCCAAUGCAUCCCACCACAUGAUGAUGCCUGAAGAGCCUUGGUUUUUUG, the “polymerase ribozyme fitness (log ratio)” value was -1.86. Under GACCAAUCUGCCCUCAGAGCUCGAGAACAUCUUCGGAUGCAGAGCAGGCAGGCUUAGGUGGCGCGAUAGCGCCAACGUCCUCAACCUCCAAUGCAUCCCACCACAUGAUGAUGCCUGAAGAGCCUUGGUUUUUUG stands -1.46; under GACCAAUCUGCCCUCAGAGCUCGAGAACAUCUUCGGAUGCAGAGCAGGCAGGCUUCGGUGGGGCGAUAGCGCCAACGUCCUCAACCUCCAAUUCAUCCCACCACAUGAUGAUGCCUGAAGAGCCUUGGUUUUUUG, -5.04; under GACCAAUCUGCCCUCAGAGCUCGAGAACAUCUUCGGAUGCAGAGCAGGCAGGCUUCGGUGGCGCGAUAGCGCAAACGUCCACAACCUGCAAUGCAUCCCACCACAUGAUGAUGCCUGAAGAGCCUUGGUUUUUUG, -0.576. The value for GACCAAUCUGCCCUCAGAGCUCGAGAACAUCUUCGGAUGCAGAGCAGGCAGGCUUCGGUGGCGCGAUAGUGCCAACGUCCUCAACCUCCAAUGCAUCCCACCACAUGAUGAUGCCUGAAGAGCCUUGGUUUUUUG was -1.4; that for GACCAAUCUGCCCUCAGAGCUCGAGAACAUCUUCGGAUGCAGAGCAGGCAGGCUUCGGUGGCGCGAUAGCGCUAACGUCCUCAACCUCCAAUGCAUCCCACCACAUGAUGAUGCCUAAAGAGCCUUGGUUUUUUU was -4; that for GACCAAUCUGCCCUCAGAGCUCGAGAACAUCUUCGGAUGCAGAGCAGGCAGGCUUCGGUGGCGCGAUAGCGCCAACGUCCUCAACCUCCAAUGCAUCCCACCACAUGAUGAUGCCUGAAGAGCCUUGGUUUUUUG was -1.57. Under GACCAAUCUGCCCUCAGAGCUCGAGAACAUCUUCGGAUGCAGAGCUGGCAGGCUUCGGUGGCGCGAUAGCGGCAACGUCCUCAACCUCCAAUGCAUCCCACCACAUGAUGAUGCCUGAAGAGCCUUGGUUUUUUG stands -2.36; under GACCAAUCUGCCCUCAGAGCUCGAGAACAUCUUCGGAUGCAGAGCAGGCAGGCUUCGGUGGCGCGAUAGCGUCAACGUCCUCAAGCUCCAAUGCAUCCCACCACAUGAUGAUGCCUGAAGAGCCUUGGUUUUUUG, -3.66.

For the origin of these results see the RNAGym collection of RNA variant scans (doi:10.1073/pnas.2313332121).
